Laboratory results taken from US11111484B2, “Streptococcus bacteriophage lysins for detection and treatment of gram positive bacteria” (priority 2011, dated 2021).
“Also recorded” adds a separate entry of the source.

B1: ΔPlySs1: truncated PlySs1 lysin, SEQ ID NO:2, N-terminal 254 amino acids: only N-terminal enzymatic and central binding domains (protein, listed as Streptococcus suis)
chain: MTINLETSIRWMSDRVGKVSYSMDYRNGPNSYDCSSAVYYALMAGGAISAGWAVNTEYMHDWLIRNGYVLVAENKPFNAQRHDVCILGKRGYSSGAGGHVVIFVDNVNVIHCNYARNGISIDNYNQVHRGMYYYLYRPANQPSISNKSLDQLVKETLAGVHGNGDTRKASLGSQYEAVMAVINGKASASEKSDEELAREVLAGKHGAGEDRKRSLGPRYEPVQAKVNELLKAKEKPSETAKNEPQTVQFKEDGDL
B2: PlySs2: Streptococcus suis prophage lysin, SEQ ID NO:3; N-terminal CHAP domain and C-terminal SH3-type 5 domain (protein, listed as Streptococcus suis)
chain: MTTVNEALNNVRAQVGSGVSVGNGECYALASWYERMISPDATVGLGAGVGWVSGAIGDTISAKNIGSSYNWQANGWTVSTSGPFKAGQIVTLGATPGNPYGHVVIVEAVDGDRLTILEQNYGGKRYPVRNYYSAASYRQQVVHYITPPGTVAQSAPNLAGSRSYRETGTMTVTVDALNVRRAPNTSGEIVAVYKRGESFDYDTVIIDVNGYVWVSYIGGSGKRNYVATGATKDGKRFGNAWGTFK

Tests used:
E. faecium EFSK2 = assay: ΔPlySs1 OD600 lysis, 1 hr, optimal buffering conditions; type: cell-based, Enterococcus faecium
S. gordonii 10558 = assay: as above; type: cell-based, Streptococcus gordonii
[1] = test system: S. pyogenes strain MGAS5005; assay: murine septicemia model, S. pyogenes infection alone; type: in vivo, FVB/NJ mice; details: PlySs2 2 mg
Method: The Rockefeller University's Institutional Animal Care and Use Committee approved all in vivo protocols. A systemic infection model described in Daniel, A. et al., was used to test for the in vivo efficacy of PlySs2 against multiple gram-positive bacteria. Briefly, 4-5 week old female FVB/NJ mice (weight range 15 to 20 g) were obtained from The Jackson Laboratory (Bar Harbor, Me.). After a period of acclimation, mice were injected intraperitoneally (IP) with 0.5 ml of mid log-phase (OD600 0.5) bacteria diluted with 5% hog gastric mucin (Sigma) in saline. Bacterial suspensions contained ˜5×10^5 CFU/ml of MW2, a PVL toxin-encoding MRSA strain, ˜1×10^7 of MGAS5005, an M1 serotype of Streptococcus pyogenes that is virulent in humans and mice (Musser), or a combination of both bacteria simultaneously at the above concentrations for the mix infection experiments. Actual bacterial inoculation titers were calculated by serial dilution and plating to Columbia blood agar plates for each experiment. Mice became bacteremic within one to three hours and contained MRSA and/or S. pyogenes in their organs (including spleen, liver, kidney, and heart/blood) ([50], and unpublished observations). […] The survival rate for each experimental group was monitored every 12 hours for the first 24 hours then every 24 hours up to 10 days post-infection. The data were statistically analyzed by Kaplan Meier Survival curves and a Logrank test performed for 95% confidence intervals using the Prism computer program (GraphPad Software; La Jolla, Calif.).
To determine if the broad lytic activity of PlySs2 could provide in vivo protection from infection with gram-positive pathogens, either alone or as a mixed infection, FVB/NJ mice were intraperitoneally injected with ˜5×10^5 CFU of MRSA strain MW2, ˜1×10^7 of S. pyogenes strain MGAS5005 and/or both bacteria simultaneously at the concentrations above. […] Mice were then monitored for survival over ten days. […]

E. coli = assay: MIC studies; type: cell-based, Escherichia coli; details: E. coli negative control
Method: The Wiegand, et al. protocol to determine minimum inhibitory concentrations was followed with adjustments detailed below. A final suspension of ≈5×10^5 cells/ml in MHB (or BHI for S. pyogenes) resulted after Sterile-filtered lysin or vehicle was added at the appropriate concentration. These tests were distributed within a 96-well microtiter plate. The MIC's were determined, in this experiment, by detection of pellet formation in the bottom of rounded polysterene plate wells. They were also corroborated colorimetrically with alamarBlue®.

S. pyogenes = assay: CFU studies, bactericidal effect; type: cell-based, Streptococcus pyogenes; details: 128 μg/ml PlySs2, 1 hour
Method: Log-phase bacteria were resuspended in buffer A to an OD600 of 0.1 (=0.5 McFarland≈10^8 CFU/ml). PlySs2 was added at 128 μg/ml to polypropylene microtiter plates (Costar) in triplicate for each test organism. Plates were sealed and incubated at 37° C. with shaking every 5 minutes for 1 hour. After 1 hour of incubation, cells were serially diluted in 10-fold increments and plated on BHI. Triplicate controls for each strain were performed with buffer B replacing PlySs2.

Molecule | lysis value after 1 hr (treated/untreated OD600 ratio) (E. faecium EFSK2; 6.5 μg/ml) | lysis value after 1 hr (treated/untreated OD600 ratio) (E. faecium EFSK2; 13 μg/ml) | lysis value after 1 hr (treated/untreated OD600 ratio) (E. faecium EFSK2; 30 μg/ml) | lysis value after 1 hr (treated/untreated OD600 ratio) (E. faecium EFSK2; 65 μg/ml) | lysis value after 1 hr (treated/untreated OD600 ratio) (E. faecium EFSK2; 130 μg/ml) | lysis value after 1 hr (treated/untreated OD600 ratio) (S. gordonii 10558; 6.5 μg/ml) | lysis value after 1 hr (treated/untreated OD600 ratio) (S. gordonii 10558; 13 μg/ml) | lysis value after 1 hr (treated/untreated OD600 ratio) (S. gordonii 10558; 30 μg/ml) | lysis value after 1 hr (treated/untreated OD600 ratio) (S. gordonii 10558; 65 μg/ml) | lysis value after 1 hr (treated/untreated OD600 ratio) (S. gordonii 10558; 130 μg/ml) | mice died at day three (dead/total) [1] | survival over 10 days ([1]; PlyC 1 mg) [%] | survival over 10 days (mice surviving/total) ([1]; PlyC 1 mg) | minimum inhibitory concentration (MIC) (E. coli) | reduction of colony forming units (CFUs) (S. pyogenes) [logs]
B1 | 0.85 | 0.67 | 0.52 | 0.32 | 0.13 | 0.76 | 0.32 | 0.19 | 0.09 | 0.06 |  |  |  |  | 
B2 |  |  |  |  |  |  |  |  |  |  | 1/16 | 94 | 15/16 | too high to calculate; also recorded: immeasurable | 3
